Among the data in PMC5830531 are Kd values, retold here.

Common to all, as to assay: EMSA
(In general: In EMSA bound probe runs differently from free probe, usually more slowly.)

Data set [1] concerns MBP-A3H m1+W115A/C116S monomer (Homo sapiens (haplotype II)). The following applies: EMSA: 50 mM HEPES pH 7.5, 250 mM NaCl, 1 mM DTT, 2.5 mM EDTA, 10% glycerol, on ice 10 min, protein up to 8 uM, 8% native PAGE.
For data set [2], the system named is MBP-A3H m1 monomer (Homo sapiens (haplotype II)). The following applies: EMSA: 50 mM HEPES pH 7.5, 250 mM NaCl, 1 mM DTT, 2.5 mM EDTA, 10% glycerol, on ice 10 min, protein up to 8 uM, 8% native PAGE.
The subject of data set [3] is MBP-A3H m1+H114A monomer (Homo sapiens (haplotype II)). The settings on record: EMSA: 50 mM HEPES pH 7.5, 250 mM NaCl, 1 mM DTT, 2.5 mM EDTA, 10% glycerol; on ice 10 min; protein up to 8 uM; 1 nM RNA or 10 nM DNA; 8% native PAGE; n=3 ….
[4] abbreviates: smeared bands, approximate, 1 nM RNA or 10 nM …, n=3, Table.

The Kd is the equilibrium constant for the complex coming apart. Turning to 13 nt ssDNA, the Kd in data set [1] (approximate estimate, 1 nM RNA or 10 nM DNA, n=3 …) was 497 nM; in data set [2] (approximate estimate, monomer assigned from the monomer comparison, 1 nM RNA or 10 nM DNA, n=3 …), 272 nM.

Consider 50 nt ssRNA, for which the Kd in data set [3] came to 34 nM; in data set [1] (1 nM RNA or 10 nM DNA, n=3 …), 12 nM; in data set [2] (1 nM RNA or 10 nM DNA, n=3 …) it was 8 nM.

As for 8 nt ssDNA, the results for the dissociation constant (Kd) in data set [1] (setting [4]) and in data set [2] (setting [4]) were 2960 nM and 983 nM, respectively.
